Experimental data from the supplement of paper PMC10567573.

B1: CDC14A (parent)
chain: LWVQGDIFRSKLKNRPSSEGSINK
B2: STX11 (parent)
chain: FQRAMHDYNQAEMKQRDNCKIRIQ

Variants of: B1
Assay: protein stability index of a GFP-peptide fusion (GPS, HEK-293T) (PSI 1-6); higher = more stable
Conditions: c terminus: a fixed tail appended
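Note: lentivirally expressed fusions sorted by FACS into six bins by GFP to DsRed ratio, PSI derived from sequencing read proportions per bin multiplied by bin number.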

Protein stability index, by site and new letter:
V3: A 3.45 | F 2.64 | D 3.58 | C 2.94 | E 4.85
W2: N 4.07 | H 3.81 | V 2.6 | E 5.28 | P 4.26 | A 4.05 | M 3.48 | L 2.98 | R 3.46 | Y 2.67 | F 3.07 | G 4.04 | D 4.4 | I 2.51 | T 4.6 | Q 4.28 | K 3.74 | C 3.8 | S 4.49
L1: Y 2.43 | V 2.2 | M 2.79 | F 1.75 | Q 2.79 | K 3.49 | A 3.37 | C 3.69 | D 4.57 | H 3.37 | I 2.17 | T 4.24 | S 4.05 | W 2.3 | G 3.03 | N 4.3 | P 3.75 | R 4.17 | E 4.43

Variants of: B2
Assay: as above
Conditions: c terminus: a fixed tail appended

Protein stability index: each site, then its substitutions
A11: K 2.6 | P 3.19 | V 2.79 | Y 3.24 | E 3.22 | Q 2.42 | R 2.79 | I 1.68 | N 2.44 | M 2.02 | H 2.58 | G 3.09 | C 2.29 | D 3.02 | S 2.75 | T 2.43 | W 2.49 | L 3.27 | F 2.46
C19: M 2.85 | K 3.38 | E 3.06 | W 2.35 | A 2.98 | T 3.04 | S 3.27 | Q 2.77 | N 3.7 | Y 2.61 | G 3.06 | F 1.85 | I 2.55 | D 2.85 | P 3.71 | L 2.54 | H 4.44 | V 2.96 | R 2.59
N9: W 1.74 | V 2 | R 4.08 | T 2.79 | Y 1.74 | S 2.91
I21: M 3.12 | S 3.5 | E 2.92 | K 2.68 | W 3.17 | N 2.98 | Y 2.93 | H 2.76 | T 3.17 | R 3.56 | V 1.92 | A 3.01 | G 3.08 | F 2.34 | L 2.29 | Q 3.04 | D 3.86 | P 2.9 | C 2.36
N18: R 2.44 | K 2.56 | H 2.02 | T 3.21 | D 2.88 | Y 2.17 | S 2.48 | A 2.53 | E 3.11 | F 2.36 | V 2.17 | L 2.48 | I 2.41 | P 2.91 | W 2.17 | C 2.3 | Q 2.5 | G 2.41 | M 2.59
D17: K 1.98 | H 2.15 | Y 1.89 | W 1.68 | E 2.81 | N 2.28 | V 2.73 | P 2.97 | A 2.28 | T 1.98 | R 1.82 | C 2.09 | F 1.16 | I 1.8 | M 2 | Q 2.63 | S 1.78 | L 2.1 | G 2.36
R16: E 3.04 | T 2.67 | P 2.87 | Y 2.65 | M 2.46 | W 2.43 | S 2.41 | A 3.04 | L 3.07 | F 2.28 | K 2.81 | D 3.28 | N 2.7 | Q 3.29 | V 2.63 | C 2.48 | I 2.34 | H 2.73 | G 3.37
K20: C 2.23 | E 2.74 | G 2.35 | P 2.37 | T 2.47 | A 2.32 | V 2.14 | L 3.26 | D 3.11 | W 1.6 | I 1.3 | M 2.46 | R 2.37 | S 3.15 | N 2.83 | Q 2.75 | F 1.69 | H 3.21 | Y 1.41
M13: P 3.11 | V 2.52 | R 2.1 | A 2.95 | F 2.5 | W 2.5 | S 3.03 | T 2.79 | D 3.71 | L 2.35 | C 2.49 | Q 2.62 | H 2.65 | E 2.49 | G 3.49 | I 2.85 | N 3.5 | Y 2.62 | K 1.98
R22: K 2.42 | N 2.61 | V 2.6 | M 2.8 | C 2.37 | A 2.61 | I 2.58 | H 2.49 | T 2.54 | E 2.67 | F 2.04 | Q 2.9 | S 3.44 | D 3.13 | L 2.53 | G 2.57 | P 3.02 | W 1.74 | Y 2.59
Q10: A 3.1 | W 1.73 | V 2.67 | F 1.81 | C 1.87 | H 2.16 | I 2.31 | L 2.36 | M 1.92 | K 2.73 | Y 2.17 | E 2.74 | S 3.35 | D 2.59 | N 2.63 | R 2.06 | T 2.39 | G 2.45 | P 2.01
K14: H 2.57 | P 2.85 | C 3.08 | V 2.48 | I 2.3 | D 3.08 | N 2.94 | T 2.69 | M 2.82 | S 2.48 | W 2.86 | F 2.91 | A 2.98 | Q 2.4 | G 3.11 | L 2.44 | E 3.93 | Y 2.14 | R 2.18
Q15: P 2.85 | W 3.09 | F 2.01 | E 3.2 | G 2.45 | R 2.64 | C 2.29 | A 2.23 | V 2.56 | I 2.17 | Y 3.08 | H 2.57 | K 2.15 | S 2.71 | M 1.86 | L 2.32 | T 3.18 | D 2.74 | N 2.86
I23: M 2.99 | R 2.74 | S 2.66 | W 2.83 | N 3.78 | C 2.9 | H 2.8 | L 2.87 | K 2.93 | G 3.25 | P 3.24 | F 2.5 | T 3.19 | D 3.38 | A 3.51 | V 2.85 | Q 3.52 | E 3.53 | Y 2.98
E12: V 2.52 | W 2.39 | N 2.29 | K 2.31 | L 2.42 | R 2.83 | G 2.05 | T 2.62 | F 2.29 | A 2.32 | S 2.23 | Y 1.67 | M 1.6 | D 2.5 | C 2.11 | P 2.02 | H 2.14 | Q 2.31 | I 2.44
Q24: N 2.95 | E 3.17 | G 2.75 | F 2.17 | T 2.77 | C 2.3 | D 2.81 | W 1.6 | R 2.33 | I 2.36 | M 2.69 | S 2.27 | V 2.42 | P 2.83 | K 2.87 | L 3.09 | Y 2.05 | H 2.74 | A 2.62
